The format of this series is physicochemical. The protocol: In addition, the stability is higher. The reaction of ^90Y-DOTATOC or ^90Y-DOTAGA at 37° C. with the chelator DTPA results in ^90Y-DTPA.

`C[C@@H](O)[C@@H]1NC(=O)[C@H](CCCCN)NC(=O)[C@@H](Cc2c[nH]c3ccccc23)NC(=O)[C@H](Cc2ccc(O)cc2)NC(=O)[C@@H](NC(=O)[C@@H](Cc2ccccc2)NC(=O)CCC(C(=O)O)N2CCN(CC(=O)O)CCN(CC(=O)O)CCN(CC(=O)O)CC2)CSSC[C@@H](C(=O)N[C@H](CO)[C@@H](C)O)NC1=O` (single isomer, unassigned) [DOTAGA] showed a half-life of 79 h.

Broadly, the half-life is how long it takes for the measured level to halve.

The record behind these values is patent US20060233704A1, “Prochelator for the preparation of radiometal labeled molecules having improved biological properties” (priority 2000, published 2006).
